# Values of other authors in patent US6468965B1, “Pharmaceutical composition for oral administration of a mixture of chelating agents” (priority 2002, dated 2002).
# B1: lactoferrin (protein, UniProt P24627 20-708, looked up)
# Lactotransferrin: APRKNVRWCTISQPEWFKCRRWQWRMKKLGAPSITCVRRAFALECIRAIAEKKADAVTLDGGMVFEAGRDPYKLRPVAAEIYGTKESPQTHYYAVAVVKKGSNFQLDQLQGRKSCHTGLGRSAGWIIPMGILRPYLSWTESLEPLQGAVAKFFSASCVPCIDRQAYPNLCQLCKGEGENQCACSSREPYFGYSGAFKCLQDGAGDVAFVKETTVFENLPEKADRDQYELLCLNNSRAPVDAFKECHLAQVPSHAVVARSVDGKEDLIWKLLSKAQEKFGKNKSRSFQLFGSPPGQRDLLFKDSALGFLRIPSKVDSALYLGSRYLTTLKNLRETAEEVKARYTRVVWCAVGPEEQKKCQQWSQQSGQNVTCATASTTDDCIVLVLKGEADALNLDGGYIYTAGKCGLVPVLAENRKSSKHSSLDCVLRPTEGYLAVAVVKKANEGLTWNSLKDKKSCHTAVDRTAGWNIPMGLIVNQTGSCAFDEFFSQSCAPGADPKSRLCALCAGDDQGLDKCVPNSKEKYYGYTGAFRCLAEDVGDVAFVKNDTVWENTNGESTADWAKNLNREDFRLLCLDGTRKPVTEAQSCHLAVAPNHAVVSRSDRAAHVKQVLLHQQALFGKNGKNCPDKFCLFKSETKNLLFNDNTECLAKLGGRPTYEEYLGTEYVTAIANLKKCSTSPLLEACAFLTR
# notes: 80 kDa mammalian iron-chelating glycoprotein obtainable from the whey protein of cow's milk
# Columns and labels:
# Porphyromonas gingivalis = conditions: literature report, J. Biol. Chem. 2000
# [1] = tested on: VEGF165-Mediated Angiogenesis; conditions: orally administered; literature report, Int. J. Cancer 2001
# colon 26 carcinoma = conditions: orally administered; literature report, Nutrition and Cancer 2000
molecule,measurement,setting,value
B1,action on growth of the bacteria responsible for gingivitis,Porphyromonas gingivalis,inhibiting action
same,effect on angiogenesis,[1],inhibiting angiogenesis
same,effect on the lung colonization of colon 26 carcinoma,colon 26 carcinoma,significant inhibiting effect
